For this experiment, the target named is SNAP-Protein G. The experiment can be described thus: titration on hydrogel beads, read by flow cytometry of the beads; SNAP-Protein G covalently immobilised on PHD beads (20 um, 50 uM BG); titration series of fluorescently labelled mouse IgG2b at room temperature with rolling for the indicated times, then washed; mean of triplicates fitted to fluorescence = (fluorescencemax x [IgG])/(KD + [IgG]).

Consider “fluorescently labeled mouse IgG2b (antibody)”, for which the Kd (commonly the constant that tells how readily two partners part at equilibrium) turned out to be 30.1 nM.

The values are drawn from paper PMC9413441.
